Variants at the floor of the assay were thinned out.
B1: TPR 5TU (parent)
chain: GGAUCUUCUCGAUCUAACAAAAAAGACAAAUCUGCCACAAAGCUUGAGAGCAUCUUCGGAUGCAGAGGCGGCAGCCUUCGGUGGCGCGAUAGCGCCAACGUUCUCAACUAUGACACGCAAAACGCGUGCUCCGUUGAAUGGAGUUUAUCAUG

Variants of: B1
Experiment: polymerase ribozyme fitness, log enrichment relative to wild type (log ratio); higher = more active; in vitro selection for triplet polymerase activity
Procedure, shortened: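 Genotype fitness is the logarithm of its enrichment divided by wild-type enrichment, using inverse-variance-weighted averages of replicates. That logarithm is base 2. Enrichment was measured by Illumina sequencing of input and output libraries from one triplicate in vitro selection round, with frozen incubation at −7 °C, on PCR-built, transcribed mutant libraries of each subunit of a heterodimeric triplet polymerase ribozyme, retaining genotypes with ≥10 input reads and ≥1 read per output.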
With GGAUCUUCACGAUCUAACAAAAUAGACAAAUCUGCCACAAAGCUUGAGAGCAUCUUCGGAUGCAGAGGCGGCAGCCAUCGGUGGCGCGAUAGCGCCAACGUUCUCAACUAUGACACGCAAAACGCGUGCUCCGUUGAAUGGAGUUUAUCAUG [U9A A23U U77A] the “polymerase ribozyme fitness (log ratio)” value was no more than -4.2. In the case of GGAUCUUCACGAUCUAACAAAAAUGACAAAUCUGCCCCAAACCUUGAGACCAUCUUCAGAUGCAGAGGCGGCAGCCUUCGGUGGGGCGAUCGCGCCAACGUUCUCAACUAUGACACGCAAAACGCGUGCUCCGUUGAAUGGAGUUUAACAUG [U9A A24U A37C G42C G50C G58A C85G A91C U148A], the “polymerase ribozyme fitness (log ratio)” value is reported as no more than -4.2. With GGAUCUUCACGAUCUGACAAAAAAGACAAAUCUGCCACAAAGCUUGAGAGCAUUUUCGGAUGCAGAGGCGGCAGUAUUCGGUGGCGCGAUAGCGCCAACGUUCUCAACUAUGACACGCAUAACGCGUGCUCCGUUGAAUGGAGUUUAUCAUG [U9A A16G C54U C75U C76A A120U] the “polymerase ribozyme fitness (log ratio)” value was no more than -4.2. For GGAUCUUUUCGAUCUAACAAAAAAGACAAAUCUGCCACAAAGCUUGAGAGCAUCAUCGGAUGCAGAGGCGGCAGCCUUCGGUGGCGCGAUAGCGCCAACGUUCUCAACUAUGACACGCAAAACGCGUGCUCCGUUGAAUGGAGUUUAUCAUG [C8U U55A], the “polymerase ribozyme fitness (log ratio)” value was -2.51. With GGAUCUUUUCGAUCGAACAAAAAAGACAAAUCUGCCACAAAGCUUGAGGGCAUCUUCGAGUGCAGAGGCAGCAGCCUUCGGUGGCCCGAUAGUGCCAACGUUCUCGACUAUGACACGCAAAACGCGUGCUCCGUCGAAUGGAGUUUAUCAUG [C8U U15G A49G G59A A60G G70A G86C C93U A106G U135C] the “polymerase ribozyme fitness (log ratio)” value was no more than -4.2. With GGAUCUUCACGAUCUAACAAUAAAGACAAAUCUGCCACAAAGCUUGAGAGCAUCAUCGGAUGCAGAGGCGGCAGCCUUCGGUGGGGCGAUAGCGCCAACGUUCUCAACUAUCACACGCAAAACGCGUGCUCCGUUGAAUGGAGUAUAUCAUG [U9A A21U U55A C85G G112C U145A] the “polymerase ribozyme fitness (log ratio)” value was no more than -4.2. For GGAUCUUUUCGAUCAAACAAAAAAGACAAAUCUGCCACAAAGCUUGAGAGCAUCUUCUGAUGCAGAGGAGGCAGCCUUCGGUGGAGCGAUAGCGCCAACGUUCUCAACUAUGACACGCAAAACCCGUGCUCCGUUGAAUGGAGUUUAUCAUG [C8U U15A G58U C69A C85A G124C], the “polymerase ribozyme fitness (log ratio)” value was -3.61. For GGAUCUUUUCGAUCUAACAAAAAAGACAAAUCUGCCACAAAGCUUGAGAGCAACUUCGGAUGCAGAGGCGGCAGCCUUCGGUGGCGCGAUAGCGCCAACGUUCUCAACUAUGACACGCAAAACGCGUGCUCCGUUGAAUGGAGUUUAUCAUG [C8U U53A], the “polymerase ribozyme fitness (log ratio)” value was -3.41. In the case of GGAUCUUCACGAUCUAACAAAAAAGACAAAUCUGCCACCAAGCUUGAGAGCAGCUUCGGAUGCAGAGGCGGCAGCCUUCGGUGGCGCGAUAACGCCAACGUUCUCAACUAUCGCACGCAAAACGCGUGCUCCGUUGAAUGGAGUUUAUGAUG [U9A A39C U53G G92A G112C A113G C149G], the “polymerase ribozyme fitness (log ratio)” value is reported as no more than -4.2. In the case of GGAUCUUCACGAUCUAACAAAAAUGACAAAUCUGCCACAAAGCUUGAGAGCAUCUUCGGAUGCAGAGGCGGCAGCCUUCGGUGGCGCGAUAGCGCCAACGUUCUCAACUAUGACACGCAAUUCGCGUGCUCCGUUGAAUGAAGUUUAUCAUG [U9A A24U A121U A122U G141A], the “polymerase ribozyme fitness (log ratio)” value is reported as no more than -4.2. For GGAUCUUUUCGAUCUAACAAAAAAGACAAAUCUGCCACAAAGCUUGAGAGCAUCUACGGAUGCAGAGGCGGCAGCCUUCGGUGGCGCGAUAGCGCCAACGUUCUCAACUAUGACACGCAAAACGCGUGCUCCGUUGAAUGGAGUUUAUCAUG [C8U U56A], the “polymerase ribozyme fitness (log ratio)” value was -3.09. For GGAUCUUCACGAUCUAACCAAAAAGACAAAUCUGCCACAACGCUUGAGAGCAUCUUUGGAUGCAGAGGCGGCAGCCUUCGGUGGCGCGAUAGCGCUAACGUUCUCAACUAUGACACGCAAAACGCGUGCUCCGUUGAAUGGAGUUUAUCAUG [U9A A19C A41C C57U C96U], the “polymerase ribozyme fitness (log ratio)” value was no more than -4.2. With GGAUCUUUUCGAUCUAACAAAAAAGACAAAUCAGCCCCAAAGCUUGAGAACAUCUUCGGUUGCAGAGGCGGAAGCCUUCGGUGGCACGAAAGCGCCAACGUUCUCAACUAUGACACGCAAAACGCGUGCUCCGUUGAGUGGAGUUUAUCAGG [C8U U33A A37C G50A A60U C72A G86A U90A A138G U151G] the “polymerase ribozyme fitness (log ratio)” value was no more than -4.2. With GGAUCUUCACGAUCUAUCAAAAAAGACAAAUCUGCCACAAAGCUUGAGAGCAUCUUCAGAUGCAGAGGCGGCAGCCUUCGGUGGCGCGAUAGCGCCAACGUUCUCAACUAUGACACGCAAAACGCGUGCUCCGUUGAAUGGAGUUUAUCAAG [U9A A17U G58A U151A] the “polymerase ribozyme fitness (log ratio)” value was no more than -4.2. In the case of GGAUCUUCACGAUCUAACAAAAAAGGCAAAUCUGCCACAAAGCUUGAGAGCAUCUUCGGAUGCAGCGGCGGCAGCCUUCGGUGGCGCGAUAGCGCCAACGUUCUCAACUAUGACACGCAAAUCGCGUGCUCCGUUGUAUGGACUAUAUCAUG [U9A A26G A66C A122U A137U G143C U145A], the “polymerase ribozyme fitness (log ratio)” value is reported as no more than -4.2. In the case of GGAUCUUCACGAUCUAACAAAGAAGACAAAUCUACCACAAAGCUUGAGAGCAUCUUCGGAUGCAGAGGCGGCAGCCUUCGGUGGCGCGAUAGCGCCAACGUUCUCGACUAUGACAUGCAUAACGCGUGCUCCGUUGAAUGGAGUUUAUCAUG [U9A A22G G34A A106G C116U A120U], the “polymerase ribozyme fitness (log ratio)” value is reported as no more than -4.2. For GGAUCUUCACGAUCUAACAAACAAGACAAAUCUGCCUCAAAGCUAGAGAGCAACUUCGGAUGCAGAGGCGGCAGCCUUCGGUGACGCGAUAGCGCCAACGUUCUCAACUAUGACACGCAAAACGCGUGCUCCGUUGAAUGGAGUUUUUCAUG [U9A A22C A37U U45A U53A G84A A147U], the “polymerase ribozyme fitness (log ratio)” value was no more than -4.2. In the case of GGAUCUUUUCGAUCUAACAAAAAAGACAAAUCUGCCACAAAGCUUGAGAGCAUCUUCGGAUGCAGAGGCGGCAGCCUUCGGGGGCGAGAUAGCGCCAACGUUCUCAACUAUGACACGCAAAACGCGUGCUCCGUUGAAUGGAGUUUAUCAUG [C8U U82G C87A], the “polymerase ribozyme fitness (log ratio)” value is reported as no more than -4.2. For GGAUCUUCACGAUCUAACAAAAAAGACAAAUCUGCCACUAAGCUUGAAAGCAUCUUCGGAUGCAGAGGCGGCAGCCUUCGGUGUCGCGAUAGCGCCAAAGUUCUCAACUAUGACACUCAAAACGCGUGCUCCGUUGAAUGGAGUUUAUCAUG [U9A A39U G48A G84U C99A G117U], the “polymerase ribozyme fitness (log ratio)” value was no more than -4.2.

Source: the RNAGym collection of RNA variant scans (doi:10.1073/pnas.2313332121)
